According to publication PMC12326332, “Tuning ubiquitin transfer by RING E3 ubiquitin ligases through the linchpin residue” (Life Science Alliance, 2025):

Biological target: T1, mature human SMAC^56-C (human, UniProt Q9NR28 56-239)
T1 construct: SMAC (DIABLO), mature form starting from Ala56 to the C terminus; expressed as a SUMO fusion in pRSF-DUET1 so that the N terminus starts from Ala56; also called SMAC^56-C,Strep-II; mature SMAC; source: E. coli BL21 (DE3) Rosetta 2 pLysS, purified (His-TRAP, Superdex 75); not shown: SUMO, N-terminal, cleaved
T1 sequence (looked up): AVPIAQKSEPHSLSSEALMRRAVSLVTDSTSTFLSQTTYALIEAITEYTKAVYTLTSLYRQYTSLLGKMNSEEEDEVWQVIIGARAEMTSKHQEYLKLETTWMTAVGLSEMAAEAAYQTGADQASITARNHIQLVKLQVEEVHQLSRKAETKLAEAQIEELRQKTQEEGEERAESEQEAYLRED
Assay: SEC; gel filtration elution profiles of XIAP-RNF38^WT, SMAC^56-C and the E3/SMAC mixture
Conditions: both partners purified

binding result: binds
B1: XIAP^145-430-RNF38^389-C (other, UniProt P98170 145-430, looked up)
chain: QVVDISDTIYPRNPAMYSEEARLKSFQNWPDYAHLTPRELASAGLYYTGIGDQVQCFCCGGKLKNWEPCDRAWSEHRRHFPNCFFVLGRNLNIRSESDAVSSDRNFPNSTNLPRNPSMADYEARIFTFGTWIYSVNKEQLARAGFYALGEGDKVKCFHCGGGLTDWKPSEDPWEQHAKWYPGCKYLLEQKGQEYINNIHLTHSLEECLVRTTEKTPSLTRRIDDTIFQNPMVQEAIRMGFSFKDIKKIMEEKIQISGSNYKSLEVLVADLVNAQKDSMQDESSQTSTKADIEQLPSYRFNPNNHQSEQTLCVVCMCDFESRQLLRVLPCNHEFHAKCVDKWLKANRTCPICRADASEVHRDSE
notes: XIAP (BIRC4) residues 145-430 with the substrate-recruiting BIR2 and BIR3 domains; RNF38 RING domain, residue 389 to the C terminus; no linker between the two parts is told; also called XIAP-RNF38; XIAP-RNF38^WT; source: E. coli BL21 (DE3) Rosetta 2 pLysS, purified
